We go through 18 substances from paper PMC3433420.

For experiment [1], the target named is PLCG1 C-terminal SH2 domain (human). Kind of experiment: SPR; Biacore 3000; 6X His SH2 proteins held on a Ni-NTA chip, dye-free peptides in solution, equilibrium.
Experiment [2] has as its target SRC (Homo sapiens) (UniProt P12931). The conditions noted are these: cited from earlier work.
In experiment [3] the target is YES1 (Homo sapiens) (UniProt P07947). The following applies: cited from earlier work.
The target of experiment [4] is SRC (Homo sapiens) (UniProt P12931). The following applies: cited from earlier work. The source holds these as a separate data set.
The target in experiment [5] is PIK3R3 C-terminal SH2 domain (human). Kind of experiment: SPR; Biacore 3000; 6X His SH2 proteins held on a Ni-NTA chip, dye-free peptides in solution, equilibrium. For orientation: Surface plasmon resonance follows binding to a sensor surface in real time, without labels.
Experiment [6] addresses ABL2 (Homo sapiens) (UniProt P42684). The conditions noted are these: cited from earlier work.
In experiment [7] the target is SHC1-PTB (Homo sapiens) (UniProt P29353). The following applies: cited from earlier work.
A further experiment concerns the target PLCG2-NC (Homo sapiens) (UniProt P16885). The following applies: cited from earlier work.
In experiment [8] the target is SYK-NC (Homo sapiens) (UniProt P43405). The following applies: cited from earlier work.
Experiment [9] addresses ABL2 (Homo sapiens) (UniProt P42684). The following applies: cited from earlier work. This is another data set of the same source.
For experiment [10] the target is unchanged. The following applies: cited from earlier work. The source holds these as a separate data set.
Experiment [11] deals with CRK (Homo sapiens) (UniProt P46108). The conditions noted are these: cited from earlier work.
Experiment [12] addresses RASA1-N (Homo sapiens) (UniProt P20936). The conditions noted are these: cited from earlier work.
Experiment [13] concerns the target YES1 (Homo sapiens) (UniProt P07947). The conditions noted are these: cited from earlier work. This is another data set of the same source.
Another experiment has as its target BMX (Homo sapiens) (UniProt P51813). The conditions noted are these: cited from earlier work.
For a further experiment, the target named is SHB (Homo sapiens) (UniProt Q15464). The following applies: cited from earlier work.
Experiment [14] has as its target CRKL (Homo sapiens) (UniProt P46109). The conditions noted are these: cited from earlier work.
A further experiment addresses TNS1 (Homo sapiens) (UniProt Q9HBL0). The following applies: cited from earlier work.
Experiment [15] addresses SYK-NC (Homo sapiens) (UniProt P43405). The following applies: cited from earlier work. The source holds these as a separate data set.
Experiment [16] deals with ABL2 (Homo sapiens) (UniProt P42684). The following applies: cited from earlier work. The source holds these as a separate data set.
For experiment [17], the target named is CRK (Homo sapiens) (UniProt P46108). The conditions noted are these: cited from earlier work. This is another data set of the same source.
For experiment [18], the target named is RASA1-N (Homo sapiens) (UniProt P20936). The following applies: cited from earlier work. The source holds these as a separate data set.
Experiment [19] concerns the target CRKL (Homo sapiens) (UniProt P46109). The following applies: cited from earlier work. The source holds these as a separate data set.
Experiment [20] has as its target SYK-NC (Homo sapiens) (UniProt P43405). The following applies: cited from earlier work. The source holds these as a separate data set.
The target in experiment [21] is ABL2 (Homo sapiens) (UniProt P42684). The conditions noted are these: cited from earlier work. The source holds these as a separate data set.
The target of the next experiment is PLCG1-NC (Homo sapiens) (UniProt P19174). The conditions noted are these: cited from earlier work.
The next experiment concerns the target SH2B3 (Homo sapiens) (UniProt Q9UQQ2). The following applies: cited from earlier work.
The target in another experiment is PIK3R3-NC (Homo sapiens) (UniProt Q92569). The following applies: cited from earlier work.
Experiment [22] concerns the target RASA1-N (Homo sapiens) (UniProt P20936). The following applies: cited from earlier work. This is another data set of the same source.
A further experiment has as its target SLA2 (Homo sapiens) (UniProt Q9H6Q3). The following applies: cited from earlier work.
For a further experiment, the target named is PIK3R2-NC (Homo sapiens) (UniProt O00459). The following applies: cited from earlier work.
Experiment [23] concerns the target SHC1-PTB (Homo sapiens) (UniProt P29353). The following applies: cited from earlier work. This is another data set of the same source.
For another experiment, the target named is VAV2 (Homo sapiens) (UniProt P52735). The following applies: cited from earlier work.
The target of experiment [24] is ErbB1 Y900 non-phosphorylated peptide, rhodamine-labelled (human). The experiment is described as follows: fluorescence polarisation; saturation binding in solution: rhodamine peptide fixed at 10 nM, protein titrated 0.002-10 uM, 20 min at room temperature; assay buffer 20 mM HEPES, 100 mM KCl, 0.1% Tween-20, 5 mM DTT, pH 7.8; apparent KD. (Fluorescence polarisation rises when a labelled molecule tumbles more slowly, as on binding a larger partner.)

A further experiment concerns the target BLK SH2 domain (human) (UniProt P51451). Kind of experiment: peptide or protein array; SH2/PTB proteins spotted on aldehyde slides, rhodamine peptide titrated in buffer B (20 mM HEPES, 100 mM KCl, 0.1% Tween-20, 5 mM DTT, pH 7.8), 1 h at room temperature; replicate assays.
The target in experiment [25] is SH3BP2 SH2 domain (human) (UniProt P78314). The experiment is described as above.
The target of experiment [26] is SYK tandem SH2 domains (human). The experiment is described as above.
In the next experiment the target is YES1 SH2 domain (human) (UniProt P07947). The experiment is described as above.
Experiment [27] addresses SYK-N (Homo sapiens) (UniProt P43405). The conditions noted are these: cited from earlier work.
In experiment [28] the target is PIK3R1 N-terminal SH2 domain (human). Kind of experiment: SPR; Biacore 3000; 6X His SH2 proteins held on a Ni-NTA chip, dye-free peptides in solution, equilibrium.
Experiment [29] addresses ErbB1 pY801 phosphopeptide, rhodamine-labelled (human). The experiment is described as follows: fluorescence polarisation; saturation binding in solution: rhodamine peptide fixed at 10 nM, protein titrated 0.002-10 uM, 20 min at room temperature; assay buffer 20 mM HEPES, 100 mM KCl, 0.1% Tween-20, 5 mM DTT, pH 7.8; apparent KD.
For experiment [30], the target named is ErbB2 pY685 phosphopeptide, rhodamine-labelled (human). Described as above.
The target in experiment [31] is MET pY1313 phosphopeptide, rhodamine-labelled. The description is as above.
Experiment [32] addresses SYK-N (Homo sapiens) (UniProt P43405). The conditions noted are these: cited from earlier work. The source holds these as a separate data set.
Experiment [33] deals with ABL2 (Homo sapiens) (UniProt P42684). The conditions noted are these: cited from earlier work. This is another data set of the same source.
The target in experiment [34] is CRKL (Homo sapiens) (UniProt P46109). The conditions noted are these: cited from earlier work. This is another data set of the same source.

Several values for one entry are separate records, joined by “and”; a condition that tells them apart may be missing. Equal values may be shown once. Read-outs that look alike come from different tables or passages of the source.

Chain of ABL2 (Homo sapiens) (P42684 168-268): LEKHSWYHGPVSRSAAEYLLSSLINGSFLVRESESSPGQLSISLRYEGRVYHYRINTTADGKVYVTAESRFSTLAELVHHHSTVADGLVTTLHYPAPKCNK
Chain of CRKL (Homo sapiens) (P46109 9-107): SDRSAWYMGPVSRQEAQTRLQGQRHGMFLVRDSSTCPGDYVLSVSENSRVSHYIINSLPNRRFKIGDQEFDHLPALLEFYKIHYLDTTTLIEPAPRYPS
Chain of RASA1-N (Homo sapiens) (P20936 176-446): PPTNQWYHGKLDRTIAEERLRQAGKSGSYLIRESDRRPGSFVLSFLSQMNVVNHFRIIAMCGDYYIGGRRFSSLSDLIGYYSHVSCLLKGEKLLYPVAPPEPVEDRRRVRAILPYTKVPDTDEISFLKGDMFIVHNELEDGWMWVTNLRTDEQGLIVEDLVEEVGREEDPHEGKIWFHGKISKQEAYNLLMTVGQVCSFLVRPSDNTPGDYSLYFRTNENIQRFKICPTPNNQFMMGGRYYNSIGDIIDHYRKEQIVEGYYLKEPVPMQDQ
Chain of YES1 (Homo sapiens) (P07947 153-260): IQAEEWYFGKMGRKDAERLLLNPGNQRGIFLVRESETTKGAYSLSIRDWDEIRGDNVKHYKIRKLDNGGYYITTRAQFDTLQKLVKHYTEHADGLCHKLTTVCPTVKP
Chain of YES1 SH2 domain (human) (P07947 158-255): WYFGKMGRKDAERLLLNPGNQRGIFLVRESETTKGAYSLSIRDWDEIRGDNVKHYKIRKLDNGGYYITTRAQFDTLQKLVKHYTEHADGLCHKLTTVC
Chain of CRK (Homo sapiens) (P46108 8-123): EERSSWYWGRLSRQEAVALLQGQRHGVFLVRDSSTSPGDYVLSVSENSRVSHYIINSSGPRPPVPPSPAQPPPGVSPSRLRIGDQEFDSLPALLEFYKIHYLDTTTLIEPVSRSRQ
Chain of BLK SH2 domain (human) (P51451 124-220): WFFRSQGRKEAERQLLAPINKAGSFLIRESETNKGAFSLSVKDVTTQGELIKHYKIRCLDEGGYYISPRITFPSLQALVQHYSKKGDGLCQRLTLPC
Chain of SH3BP2 SH2 domain (human) (P78314 457-555): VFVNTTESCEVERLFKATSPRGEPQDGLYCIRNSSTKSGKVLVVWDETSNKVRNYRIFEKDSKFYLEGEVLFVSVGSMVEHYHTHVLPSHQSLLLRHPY
Chain of SHC1-PTB (Homo sapiens) (P29353 483-583): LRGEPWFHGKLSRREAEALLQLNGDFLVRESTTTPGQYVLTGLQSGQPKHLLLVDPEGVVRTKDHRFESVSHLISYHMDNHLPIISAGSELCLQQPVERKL
Chain of PLCG2-NC (Homo sapiens) (P16885 527-740): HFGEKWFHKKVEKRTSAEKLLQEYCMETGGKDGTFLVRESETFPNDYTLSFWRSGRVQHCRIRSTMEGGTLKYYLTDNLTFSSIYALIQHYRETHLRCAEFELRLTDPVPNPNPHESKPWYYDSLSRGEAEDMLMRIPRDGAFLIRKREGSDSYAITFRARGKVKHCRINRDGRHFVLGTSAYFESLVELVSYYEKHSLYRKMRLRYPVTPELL
Chain of PLCG1-NC (Homo sapiens) (P19174 545-761): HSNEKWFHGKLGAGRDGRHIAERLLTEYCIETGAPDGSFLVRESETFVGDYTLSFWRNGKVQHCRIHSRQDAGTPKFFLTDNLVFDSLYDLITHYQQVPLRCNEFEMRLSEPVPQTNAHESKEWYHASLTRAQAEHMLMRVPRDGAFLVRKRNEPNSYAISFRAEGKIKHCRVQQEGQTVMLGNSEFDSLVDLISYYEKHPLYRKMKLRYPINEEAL
Chain of VAV2 (Homo sapiens) (P52735 668-772): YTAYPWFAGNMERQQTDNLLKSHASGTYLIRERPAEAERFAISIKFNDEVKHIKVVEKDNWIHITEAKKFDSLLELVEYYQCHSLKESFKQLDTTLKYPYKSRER
Chain of TNS1 (Homo sapiens) (Q9HBL0 1562-1681): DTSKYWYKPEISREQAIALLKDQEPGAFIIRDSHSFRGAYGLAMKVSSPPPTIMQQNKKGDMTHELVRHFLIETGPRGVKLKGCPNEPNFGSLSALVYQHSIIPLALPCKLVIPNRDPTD
Chain of BMX (Homo sapiens) (P51813 291-397): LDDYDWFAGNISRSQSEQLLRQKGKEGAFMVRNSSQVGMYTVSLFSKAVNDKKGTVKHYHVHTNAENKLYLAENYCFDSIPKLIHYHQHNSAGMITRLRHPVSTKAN
Chain of SLA2 (Homo sapiens) (Q9H6Q3 89-196): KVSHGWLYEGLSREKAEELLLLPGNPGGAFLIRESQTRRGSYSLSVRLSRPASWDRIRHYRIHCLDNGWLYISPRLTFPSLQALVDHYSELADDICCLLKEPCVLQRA
Chain of SHB (Homo sapiens) (Q15464 405-509): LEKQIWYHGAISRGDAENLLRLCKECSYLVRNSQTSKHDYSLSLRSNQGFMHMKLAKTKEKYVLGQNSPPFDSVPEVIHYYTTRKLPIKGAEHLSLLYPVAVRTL
Chain of SH2B3 (Homo sapiens) (Q9UQQ2 359-467): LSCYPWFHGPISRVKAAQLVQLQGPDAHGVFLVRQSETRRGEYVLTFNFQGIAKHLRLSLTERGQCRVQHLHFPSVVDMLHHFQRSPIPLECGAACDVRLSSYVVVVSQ
Chain of PIK3R2-NC (Homo sapiens) (O00459 325-721): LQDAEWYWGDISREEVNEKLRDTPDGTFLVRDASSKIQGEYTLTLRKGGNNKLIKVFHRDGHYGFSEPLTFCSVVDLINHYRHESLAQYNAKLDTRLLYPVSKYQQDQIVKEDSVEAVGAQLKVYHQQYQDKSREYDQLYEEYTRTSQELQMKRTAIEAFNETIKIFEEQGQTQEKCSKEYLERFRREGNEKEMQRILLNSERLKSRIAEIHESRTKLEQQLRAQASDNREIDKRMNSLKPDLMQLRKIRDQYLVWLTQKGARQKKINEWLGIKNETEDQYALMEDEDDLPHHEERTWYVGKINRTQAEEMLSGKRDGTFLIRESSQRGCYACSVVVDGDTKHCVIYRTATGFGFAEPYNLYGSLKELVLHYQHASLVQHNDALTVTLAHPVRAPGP

ErbB4 pY833 phosphopeptide, dye-free: the Kd in experiment [1] was determined as 3460 nM.

As to …pYKGLWIPEd, the results for the apparent Kd (screen) in the experiment with SRC (Homo sapiens) [2] and with YES1 (Homo sapiens) [3] were 579 nM and 540 nM, respectively.

For …pYSADPTVFd, in the experiment with SRC (Homo sapiens) [4], the apparent Kd (screen) is 504 nM.

For the substance ErbB1 pY900 phosphopeptide, dye-free, the values for the Kd in experiment [5] and in [1] were 1470 nM and 10900 nM, respectively.

For …pYLGLDVPV, the apparent Kd (screen) with ABL2 (Homo sapiens) [6] is 210 nM; with SHC1-PTB (Homo sapiens) [7], 277 nM.

For the substance …pYNADGGKMd, the apparent Kd (screen) with PLCG2-NC (Homo sapiens) is 1140 nM.

Consider …pYQDPHSTAd, for which the apparent Kd (screen) was 981 nM in the experiment with SYK-NC (Homo sapiens) [8]; 74 nM in the experiment with ABL2 (Homo sapiens) [9]; 133 nM with ABL2 (Homo sapiens) [10]; 1230 nM in the experiment with CRK (Homo sapiens) [11]; 1320 nM in the experiment with RASA1-N (Homo sapiens) [12]; 378 nM with YES1 (Homo sapiens) [13]. For the same substance, the apparent Kd (screen) is 1070 nM in the experiment with BMX (Homo sapiens), 991 nM in the experiment with SHB (Homo sapiens), 2000 nM with CRKL (Homo sapiens) [14] and 1280 nM in the experiment with TNS1 (Homo sapiens).

In the case of …pYMTPMRDKd, the apparent Kd (screen) is 330 nM in the experiment with SYK-NC (Homo sapiens) [15]; 18 nM with ABL2 (Homo sapiens) [16]; 29 nM with CRK (Homo sapiens) [17]; 27 nM with RASA1-N (Homo sapiens) [18]; 65 nM with CRKL (Homo sapiens) [19].

As to …pYLSEFSLK, the apparent Kd (screen) in the experiment with SYK-NC (Homo sapiens) [20] is 1670 nM; with ABL2 (Homo sapiens) [21], 221 nM; with PLCG1-NC (Homo sapiens) it was 2000 nM; in the experiment with SH2B3 (Homo sapiens), 2000 nM; with PIK3R3-NC (Homo sapiens), 2000 nM; with RASA1-N (Homo sapiens) [22] it was 709 nM. Besides, the apparent Kd (screen) with SLA2 (Homo sapiens) was 2000 nM; in the experiment with PIK3R2-NC (Homo sapiens), 2000 nM; with SHC1-PTB (Homo sapiens) [23], 24 nM; in the experiment with VAV2 (Homo sapiens), 2000 nM.

For the substance “PIK3R2 tandem SH2 domains (from UniProt O00459 1-728) (domain or fragment)”, the Kd in experiment [24] was found to be 6930 nM.

Take “SHC2 PTB domain (from UniProt P98077 1-582) (domain or fragment)”: the Kd in experiment [24] stood at 5420 nM.

On to “ErbB4 pY1301 phosphopeptide (18-mer), rhodamine-labelled, for protein microarrays”, for which the Kd was 1180 nM and 1600 nM with BLK SH2 domain (human); 1180 nM and 1610 nM in [25]; 801 nM and 1170 nM in experiment [26]; 1370 nM and 4860 nM with YES1 SH2 domain (human).

Consider ErbB1 pY978 phosphopeptide, dye-free, for which the Kd in [1] is 430 nM.

In the case of …pYVREHKDNd, in the experiment with SYK-N (Homo sapiens) [27], the apparent Kd (screen) was 559 nM.

As for ErbB2 pY685 phosphopeptide, dye-free, the Kd was found to be 13400 nM in experiment [28] and 1520 nM in experiment [5].

For “PIK3R1 N-terminal SH2 domain (domain or fragment)”, the figures for the Kd in experiment [29], in experiment [30] and in [31] were 6960 nM, 2510 nM and 256 nM, respectively.

Consider …pYVNEPLYLd, for which the apparent Kd (screen) in the experiment with SYK-N (Homo sapiens) [32] is 6 nM.

In the case of …pYRAPTSTId, the apparent Kd (screen) was 1230 nM with ABL2 (Homo sapiens) [33] and 1240 nM with CRKL (Homo sapiens) [34].
